Results taken from publication PMC3413117 (Nucleic Acids Research, 2012).

B1: Leishmania infantum RAD51, purified (GST tag cleaved) (natural protein)
chain: MQTRSKAKGRRGRPSARPSEEVEVVESQPQEALQNEEQEPRQQQQQSTDMAEPNASGFRVIQILENYGVASSDIKKLMECGFYTVESAAYAPKKAILAVKGISENKAEKIMAECAKLVPMGFTSAVAYHEARKEIIMVTTGSREVDKLLGGGIETGSITELFGEFRTGKTQLCHTLCVTCQLPISQGGAEGMALYIDTEGTFRPERLVAVAERYKLDPEDVLANVACARAFNTDHQQQLLLQASAMMAENRFALIVVDSATALYRTDYSGRNELAARQMHLGKFLRSLHNLAEEYGVAVVVTNQVVANVDGSAQMFQADSKKPIGGHIMAHASTTRLSLRKGRGEQRIIKVYDSPCLAEAEAIFGIYDDGVGDARD
B2: 60-mer ssDNA (JYM925) (ssDNA)
DNA: GGGTGAACCTGCAGGTGGGCAAAGATGTCCTAGCAATGTAATCGTCAAGCTTTATGCCGT
B3: 60-mer dsDNA (JYM925/JYM945) (dsDNA)
DNA 1: B2 DNA
DNA 2: ACGGCATAAAGCTTGACGATTACATTGCTAGGACATCTTTGCCCACCTGCAGGTTCACCC
B4: Leishmania infantum BRCA2, purified LiBRCA2-His (GST tag cleaved) (natural protein)
chain: MKTIACPHCTFINPPSKVKCGVCLRLLRKRERTVADASPATANRGRKGTPSPSSTPTEHDSPATGSSQVRCDTTKSSMPLATPKSGTVASAQAVQPPDVEAMAAAPPLVPTLFSTASGKPVTVRRESLQKVAERLGDLAAPDMEARVPTLFETGRGKAVTVQKRSLDKAEASMDSLEADGAPSTSAPALSATTGGAAVRVPAVPLQAPAERLRLKSLSDKDDTSDTAAVRSIGAPRQTARAEALSRGLTTSTSECGLRALALHVIGGQRRGFVPPQQRPSAQPLAKLTHAVPLVKTSALTILRFNPDACTCRSITPSPSLSSITSLMFSFKGSDCGKVLAALLGVSGAESVQPLHWHAMLLKLGASPKHCTINWCRHALVSAMARAHFMTKVPSGALPSAFSPVTVLLCVMQMYNAEMVNGERPALRKMVEGDISSASLVVLYMSSVSEERSSPHMRIVTLSDGIYHLKVTCDVPLSNLIREGVLKPGQRMAVCGAKSLLHRQCAPTECEEQVVLSINYNCVRAVAQQTPLGVCHGEPLPLPLSLVHPLGGLVPAIEGVVARTLPSFFVSEEATETPGTHDGARQARNRVFKTVRNAHAQLQVSDRLRREAEAWADGEAAQSKPLSRVTSLLIVKDNAEALVQQWETVDERVLLADDDGGASLPVEGSWVTLYAVNPAKSRTAAAPFPRAKLFFSSRQLHYVPSKNPLQHLRRIWMAATDNKSTAGVGDVADVCGLYMGSHRNEQGTFALLLLRNDTYALLQVPVPSAGRALSLPLPATERLSLVVLNATFLTGEDPVAGSDCCRLFANEYTAVLQRSTQANLKEALETAAQLRGLVDAAPQKYAARKAEVFRCIDEGEPSGGLGLGSSTALTIRDGQGVPEVPLNVWRDAPLASPSAAATSLVPAQRYGRLPYYLRQDNERAIAGKLTGVLLPSAALPTPAVPTAVQGPYSATTIHPGVREPLVQPANSVAGARSRHYGNIADLMFLFDPRLNRRAWHPLTDPLQVTSSEVVRHGECFKRAQLCWRLSADSADDMTCRVEESSILGTVLESVCPLQELCSVIADERHIDVSLARSERLVQWRRQDSLSVWWRFFTDSRALASPADLDGASSEHLWWLPAEWTAAMRTVSAKLQAAFFYFSLSGEVLRHVRLISDCCSVAELPCD

What was measured:
[1] = biological target: the molecule itself; assay: SEC
[2] = biological target: T1, LiBRCA2 (Leishmania infantum, UniProt A4HYJ9 1-1165); assay: EMSA
T1 sequence: B4 chain

[3] = biological target: T2, LiBRCA2-B1 (Leishmania infantum, UniProt A4HYJ9 1-122); assay: EMSA
T2 sequence: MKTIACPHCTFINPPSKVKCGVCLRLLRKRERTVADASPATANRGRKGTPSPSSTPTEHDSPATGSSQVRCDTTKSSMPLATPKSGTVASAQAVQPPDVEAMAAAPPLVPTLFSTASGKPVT

Row | Binder | binding result [1] | binding result [2] | binding result [3]
1 | B1 | binds | – | –
2 | B2 | – | binds | no binding
3 | B3 | – | no binding | –
4 | B4 | binds | – | –
